Experiment [1] addresses ForJ (Streptomyces formicae). Description: non-reducing SDS-PAGE; purified ForJ exposed to increasing H2O2; no beta-mercaptoethanol and no boiling before loading; dimers to dimer of dimers.
The target of experiment [2] is ForJ (Streptomyces formicae). The experiment is described as follows: mass photometry; ReFeyn mass photometry of purified ForJ reduced with TCEP; monomers to dimer.
The target of experiment [3] is ForJ (Streptomyces formicae). The experiment is described as follows: non-reducing SDS-PAGE; purified ForJ exposed to increasing DTT; no beta-mercaptoethanol and no boiling before loading; monomers and dimers.
Experiment [4] concerns the target ForJ (Streptomyces formicae). Description: mass photometry; ReFeyn mass photometry of purified ForJ without reducing agent (oxidized); 38 kDa and 76 kDa states both present; dimers to dimer of dimers.

On to ForJ (natural protein), for which the stoichiometry N in experiment [1] was 4; in experiment [2], 2; in experiment [3] it was 2; in experiment [4] it was 4.

For the origin of these results see article PMC12421854.
